These results are taken from publication PMC6684607.

Test [1] addresses TNF domain of Spodoptera frugiperda Eiger (SfEiger), endogenous soluble form released from Sf9 cells (Spodoptera frugiperda (endogenous in Sf9)). The test is described as follows: crystal structure; X-ray, 1.7 A, space group R 3:H, one protomer in the asymmetric unit, trimer generated by the crystallographic threefold axis; crystal grown at 298 K in MORPHEUS condition 1-26.
Test [2] deals with Recombinantly expressed TNF domain of Spodoptera frugiperda Eiger (SfEiger) (Spodoptera frugiperda). The test is described as follows: SEC; Superdex 200 Increase 10/300 GL; elution volume compared with a protein standard.

With “TNF domain of Spodoptera frugiperda Eiger (SfEiger), endogenous soluble form released from Sf9 cells (domain or fragment)”, the stoichiometry N in test [1] turned out to be 3.

“Recombinantly expressed TNF domain of Spodoptera frugiperda Eiger (SfEiger) (domain or fragment)”: the stoichiometry N in test [2] stood at 3.
